Measured values from the nanobody polyreactivity screen of Harvey et al. (2022).

Assay: yeast display, Sf9 membrane polyspecificity reagent, FACS + sequencing; frameworks hold sequencing errors
Summary of the method: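 Polyreactivity labels are assigned by the sorting gate from which each nanobody was recovered. The gates were low and high (top ~1%), set on anti-HA fluorescence for expression and streptavidin fluorescence for reagent binding. Before sorting, galactose-induced (36–48 hours) yeast display cells were stained for 1 hour at 4 °C with 10% biotinylated, detergent-solubilized Sf9 membrane reagent.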

Sequence | polyreactivity (PSR sort gate)
QVQLVESGGGLVQAGGSLRLSCAASGGTFRNYAMGWYRQAPGKERELVAAITTGTITNYADSVKGRFTISRDNAKNTVYLQLNSLKPEDTAVYYCNAGAFYSDPYVYWGQGNQVTVSS | low polyreactivity
QVQLVESGGGLVQAGGSLRLSCAASGGTFRRNAMGWYRQAPGKERELVAAISFNGDRTYYADSVKGRFTISRDNAKNTVYLQMNSLKPEDTAVYYCNKASWWWGGYTYPHEYWGQGTQVTVSS | low polyreactivity
QVQLVESGGGLVQAGGSLRLSCAASGGTFRTYAMGWYRQAAGKERELVAAITGSGGRTYYADSVKGRFTISRDNAKNTVYLQMNSLKPEDTAVYDCNTGPVYQGYHWGQGTQVTVSS | high polyreactivity
QVQLVESGGGLVQAGGSLRLSCAASGGTFRVYAMGWYRKAPGKERELVAAITGRGGSTYYADSVKGRFTISRDNAKNTVYLQMNSLKPEDTAVYDCAKDPVTTYYKYDYWGQGTQVTVSS | low polyreactivity
QVQLVESGGGLVQAGGSLRLSCAASGGTFRWNARGWYRQAPGKERELVAAITKSGGSTYYADSVKGRFTISRDIAKNTVYLQMNSLKPEDTAVYYCATDYLRRRDYWGQGTQVTVSS | high polyreactivity
QVQLVESGGGLVQAGGSLRLSCAASGGTFSAYAMGWYRQAPGKERELVAAISYRGGRTYYADSVKGRFTISRDNAKNTVYLQMNSLKPEDTAVYYCNARRGSATHSVTARRGYWGQGTQVTVSS | high polyreactivity
QVQLVESGGGLVQAGGSLRLSCAASGGTFSCYAMGWYRQAPGKERELVAAITRRGGRTYYADSVKGRFTISRDNAKNTVYLQMNSLKPEDTAVYYCNTDYKFDYVGFSTWVVRYDYWGQGTQVTVSS | low polyreactivity
QVQLVESGGGLVQAGGSLRLSCAASGGTFSLNAMGWSRQAPGKERELVAAITYSTGRTHYADSVKGRFTISRDNAKNTVYLQMNSLKPEDTAVYYCAARVYGTKMDYWGQGTQVTVSS | high polyreactivity
QVQLVESGGGLVQAGGSLRLSCAASGGTFSPNTMGWYRHAPGKERELVAAISSSGSTSYADSVKGRFTISRDNAKNTVYLQMNSLKPEDTAVYYCNADDTISYYASGFDNYDYWGQGSQVTVSS | low polyreactivity
QVQLVESGGGLVQAGGSLRLSCAASGGTFSRNAMGWYRQAPGKERELVAAINTSGVSTSYADSVKGRFTISRDNAKNTVYLQMNSLKPEDTAVYYCAAETSSAEVDYWGQGTQVTVSS | low polyreactivity
QVQLVESGGGLVQAGGSLRLSCAASGGTFSRNAMGWYRQAPGKERELVAAITWSGTRTYYADSVKGRFTISRDNAKNTVYLQMNSLKPEDTAVYYCATKGRRSADDTLLDYWGQGTQVTVSS | high polyreactivity
QVQLVESGGGLVQAGGSLRLSCAASGGTFSTNTMGWYRQAPGKEMELVAAITEGTGNTYYADSVKGRFTISRDTAKNTVYLQMNSLKPEDTAVYDCATVAYSGSDFSGSAGAGDYWGQGTQVTVSS | low polyreactivity
QVQLVESGGGLVQAGGSLRLSCAASGGTFSTSAMGWYRQAPGKERELVAAISLSGVRTYYADSVKGRFTISRDNAKNTVYLQMNSLKAEVTAVDYCATRPYSPWRLYYWGQGTQVTGSS | high polyreactivity
QVQLVESGGGLVQAGGSLRLSCAASGGTFSTYAMGWYRQAPGKEREFVAAITRSGTSTYYADSVKGRFTISRDNAKNTVYLQMNSLKPEDTAVYYCATGEHFYRKLDYWGQGTQVTVSS | low polyreactivity
QVQLVESGGGLVQAGGSLRLSCAASGGTFSVYVMGWYRQAPGKERELVAAIRDRGVSTYYADSVKGRFTISRDNAKNTVYLQMNSEKPEDTAVSYCAAKYSYSRKPGAYYYWGQGTQVTVSS | high polyreactivity
QVQLVESGGGLVQAGGSLRLSCAASGGTFTHNAMGWYRQAPGKERELVAAISSSGVRTYYADSVKGRFTISRDNAKNTVYLQMNSLKPEDTAVYYCAADRFRRLHYWTYDYWGQGTQVTVSS | high polyreactivity
QVQLVESGGGLVQAGGSLRLSCAASGGTFTKNAMGWYRQAPGKERELVAAINYSGGSTYYADSVKGRFTISRDNAKNTVYLQMNSLKPEDTAVYYCAADDYRDGFTQYDYWGQGTQVTVSS | low polyreactivity
